Data on two substances can be found in paper PMC12114846, “Interleukin-15Rα-Sushi-Fc Fusion Protein Co-Hitchhikes Interleukin-15 and Pheophorbide A for Cancer Photoimmunotherapy” (Pharmaceutics, 2025).

For test [1], the target named is recombinant interleukin-15Rα-sushi-Fc fusion protein (human).
Test [2] has as its target commercial whole IL-15Rα fusion protein (rIL-15Rα-Fc) (UniProt Q13261). Briefly: not stated; affinity shown in Figure S3A,B; method not told in the main text.
The target in test [3] is recombinant interleukin-15Rα-sushi-Fc fusion protein (human). The test is described as above.
Test [4] has the same target. Briefly: pull-down; rILR-Fc/PhA NPs incubated with rIL-15 at 37 °C for 30 min in PBS; nanoparticles adsorbed on a Protein A agarose column; free rIL-15 quantified by sandwich ELISA.
Test [5] addresses commercial whole IL-15Rα fusion protein (rIL-15Rα-Fc) (UniProt Q13261).
Test [6] addresses recombinant interleukin-15Rα-sushi-Fc fusion protein (human). The source holds these as a separate data set.

Sequence of commercial whole IL-15Rα fusion protein (rIL-15Rα-Fc) (Q13261 31-205): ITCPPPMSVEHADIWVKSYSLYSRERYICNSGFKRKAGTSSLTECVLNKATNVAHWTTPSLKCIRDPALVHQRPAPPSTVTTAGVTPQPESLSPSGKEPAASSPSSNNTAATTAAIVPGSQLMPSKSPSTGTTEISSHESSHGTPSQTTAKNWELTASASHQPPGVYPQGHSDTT
Sequence of recombinant wild-type IL-15 (P40933 49-162): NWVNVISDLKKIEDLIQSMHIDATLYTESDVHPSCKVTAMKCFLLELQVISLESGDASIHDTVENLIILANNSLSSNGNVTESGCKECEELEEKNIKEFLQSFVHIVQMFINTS

As to “recombinant IL-15 (N72D-mutated human IL-15) (ligand)”, the serum elimination half-life (t1/2) of rIL-15 in mice after i.v. injection of rILR-Fc/PhA/rIL-15 NPs (free rIL-15: 20.24 min) in test [1] was determined as 39.4 min. The affinity in test [2] amounted to 0.115 nM. Also, the affinity in test [3] amounted to 0.24 nM. Also, in test [4], the encapsulation efficiency (percent of rIL-15 held by the rILR-Fc/PhA/rIL-15 NPs) worked out at 99.5% and the molar ratio of rIL-15 to rILR-Fc in the nanoparticles is 0.81.

Regarding “recombinant wild-type IL-15 (from UniProt P40933 49-162) (ligand)”, the EC50 of M-07e cell proliferation, rIL-15-wt pre-associated with rIL-15Rα-Fc (rIL-15-wt alone: 3.26 nM) in test [5] was found to be 1.65 nM. For the same substance, the EC50 of M-07e cell proliferation, rIL-15-wt pre-associated with rILR-Fc (rIL-15-wt alone: 3.26 nM) in test [6] was 1.62 nM.
